# Article PMC4660580, “Mode of interaction of the Gαo subunit of heterotrimeric G proteins with the GoLoco1 motif of Drosophila Pins is determined by guanine nucleotides” (Bioscience Reports, 2015)
# Ends that are not written are not given here. Peptide text beside a SMILES is read from it. * marks the point of attachment. Dansyl = CN(C)c1cccc2c(S(=O)(=O)*)cccc12
# How the values were obtained:
# Gαo-GDP = Gαo-GDP (Drosophila melanogaster, UniProt P16378); experiment: biochemical
# Procedure: (§1) Hexahistidine-tagged Drosophila Gαo, Gαo[W132F; W212F] and Gαo[W132F; W259F] were purified following. In brief, Top10 bacteria transformed with the corresponding construct were grown in LB media until an OD600=0.6, expression was induced with 0.1 mM IPTG and cells further grown overnight at room temperature. Cells were harvested, resuspended in PBS supplemented with Complete Protease Inhibitor cocktail (Roche) and lysed with Lysozyme and sonication. Binding of the His6 tagged proteins to the Ni-NTA agarose was conducted in 10 mM Imidazole in PBS. After washing in 20 mM Imidazole/PBS the proteins were eluted in 200–250 mM Imidazole/PBS. […] The 36-mer GoLoco1 peptide and the GoLoco1 peptide with the dansyl (5-(dimethylamino)naphthalene-1-sulfonyl) group attached to the side chain of the N-terminal lysine were synthesized by Pepscan Presto BV. Non-dansylated GoLoco1 was dissolved in water, dansyl-GoLoco1 was dissolved at 10 mM in 50% propan-2-ol and stored at -20°C.
# (§2) Fluorescence measurements were performed at RT using the Biotek SynergyMx plate reader. For all experiments, the Gαo subunits were pre-incubated with 1 mM GDP or GTPγS for >30 min at RT. For FRET measurements, preloaded Gαo was added in a final concentration of 10 μM to increasing concentration of dansylated GoLoco1 in HKB (50 mM Hepes-KOH, 100 mM KCl, 10 mM NaCl, 2 mM EGTA, 5 mM MgCl2, 1 mM DTT) and incubated for 30 min before measurement.
# Gαo-GTPγS [1] = target: T1, Gαo-GTPγS (Drosophila melanogaster, UniProt P16378); experiment: biochemical; type: binding; parameters: His6 (hexahistidine); made in house; host or cells: E. coli Top10
# T1 sequence (P16378 other isoform, or with tags, fused parts or gaps): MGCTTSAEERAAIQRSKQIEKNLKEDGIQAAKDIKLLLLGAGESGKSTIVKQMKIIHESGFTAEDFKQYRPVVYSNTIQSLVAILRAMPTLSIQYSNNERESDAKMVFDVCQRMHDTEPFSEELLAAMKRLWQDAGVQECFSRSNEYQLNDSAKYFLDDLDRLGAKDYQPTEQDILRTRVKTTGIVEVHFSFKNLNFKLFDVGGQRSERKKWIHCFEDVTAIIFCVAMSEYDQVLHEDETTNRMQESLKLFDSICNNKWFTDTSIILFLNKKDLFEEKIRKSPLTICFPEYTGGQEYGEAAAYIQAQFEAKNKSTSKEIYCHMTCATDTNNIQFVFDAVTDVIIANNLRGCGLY
# Procedure: Trp-to-dansyl FRET was measured as above.
# [2] = target: Hexahistidine-tagged Drosophila Gαo (class II isoform), wild type (Drosophila); experiment: FRET or BRET; competition: Gαo preloaded with GDP and dansylated GoLoco1 at 1:1 (5–10 μM), pre-incubated 10 min, then increasing unlabelled GoLoco1 in HKB, 30 min, RT; Trp-to-dansyl FRET
# [3] = target: Hexahistidine-tagged Drosophila Gαo (class II isoform), wild type (Drosophila); experiment: FRET or BRET; competition: Gαo preloaded with GTPγS and dansylated GoLoco1 at 1:1 (5–10 μM), pre-incubated 10 min, then increasing unlabelled GoLoco1 in HKB, 30 min, RT; Trp-to-dansyl FRET
# Gαo-GTPγS [4] = target: T1, Gαo-GTPγS; experiment: biochemical
# Procedure: as §1, §2
# [5] = target: Hexahistidine-tagged Drosophila Gαo (class II isoform), wild type (Drosophila); experiment: FRET or BRET; quenching of the donor: tryptophan fluorescence (excitation 280 nm, emission 330 nm) of 5 μM Gαo preloaded with GDP, 30 min with dansylated against unlabelled GoLoco1, RT; E = 1 - FD-A/FD
# [6] = target: Hexahistidine-tagged Drosophila Gαo[W132F; W212F] (Drosophila); experiment: as above
# [7] = target: Hexahistidine-tagged Drosophila Gαo[W132F; W259F] (Drosophila); experiment: as above
# [8] = target: Hexahistidine-tagged Drosophila Gαo (class II isoform), wild type (Drosophila); experiment: FRET or BRET; Trp-to-dansyl FRET (excitation 280 nm, emission 535 nm), saturation: 10 μM Gαo preloaded with 1 mM GDP added to increasing dansylated GoLoco1; HKB buffer (50 mM Hepes-KOH, 100 mM KCl, 10 mM NaCl, 2 mM EGTA, 5 mM MgCl2, 1 mM DTT), 30 min, RT
# [9] = target: Hexahistidine-tagged Drosophila Gαo (class II isoform), wild type (Drosophila); experiment: FRET or BRET; Trp-to-dansyl FRET (excitation 280 nm, emission 535 nm), saturation: 10 μM Gαo preloaded with 1 mM GTPγS added to increasing dansylated GoLoco1; HKB buffer, 30 min, RT
# [10] = target: Hexahistidine-tagged Drosophila Gαo[W132F; W259F] (Drosophila); experiment: FRET or BRET; quenching of the donor: tryptophan fluorescence (excitation 280 nm, emission 330 nm) of 5 μM Gαo preloaded with GTPγS, 30 min with dansylated against unlabelled GoLoco1, RT; E = 1 - FD-A/FD
# Chain of Gαo-GDP (P16378 other isoform, or with tags, fused parts or gaps): as above
molecule,measurement,setting,value
CC[C@H](C)[C@H](NC(=O)[C@H](CO)NC(=O)[C@H](CS)NC(=O)[C@H](CCCNC(=N)N)NC(=O)[C@H](CCC(N)=O)NC(=O)[C@H](CC(=O)O)NC(=O)[C@H](CC(=O)O)NC(=O)[C@H](CCSC)NC(=O)[C@H](CCCNC(=N)N)NC(=O)[C@H](CCCCN)NC(=O)[C@H](CO)NC(=O)[C@H](CCC(N)=O)NC(=O)[C@H](CO)NC(=O)[C@H](CCCNC(=N)N)NC(=O)[C@H](CO)NC(=O)[C@H](CC(C)C)NC(=O)[C@H](CCSC)NC(=O)[C@H](CCC(=O)O)NC(=O)[C@H](Cc1ccccc1)NC(=O)[C@H](Cc1ccccc1)NC(=O)[C@H](CC(=O)O)NC(=O)[C@H](CC(=O)O)NC(=O)[C@H](CC(=O)O)NC(=O)[C@@H](N)CCCCNS(=O)(=O)c1cccc2c(N(C)C)cccc12)C(=O)N[C@@H](CCCCN)C(=O)N[C@H](C(=O)N[C@@H](CC(N)=O)C(=O)N1CCC[C@H]1C(=O)N[C@@H](CO)C(=O)NCC(=O)N[C@@H](C)C(=O)N1CCC[C@H]1C(=O)N[C@@H](C)C(=O)N[C@H](C(=O)N[C@@H](C)C(=O)N[C@H](C(=O)O)[C@@H](C)O)C(C)C)C(C)C [dGoLoco1] (H-K(Dansyl)DDDFFEMLSRSQSKRMDDQRCSIKVNPSGAPAVAT-OH),Kd,Gαo-GDP,4.6 µM
same,Kd,Gαo-GTPγS [1],2.1 µM
GoLoco1 peptide of Drosophila Pins (unlabelled),Ki,[2],17.6 µM
same,Ki,[3],10.6 µM
KDDDFFEMLSRSQSKRMDDQRCSIKVNPSGAPAVAT [GoLoco1],Ki,Gαo-GTPγS [4],10.6 µM
same,Ki,Gαo-GDP,17.6 µM
dansylated GoLoco1 peptide of Drosophila Pins,FRET efficiency E,[5],0.474
same,FRET efficiency E,[6],0.478
same,FRET efficiency E,[7],0.544
same,Kd,[8],4.6 µM
same,Kd,[9],2.1 µM
same,FRET efficiency E,[10],0.127
